Legend:
[1] = molecular target: T1, rhesus CCL20-secreted alkaline phosphatase (SEAP) fusion (rhesus monkey); assay: SPR (Biacore), bivalent format, KD ratio against human CCL20 (Table 17)
T1 construct: also called rCCL20; rhesus CCL20-SEAP; not shown: the SEAP reporter (cDNA from Clontech pSEAP-Enhancer) and its junction to CCL20
T1 chain: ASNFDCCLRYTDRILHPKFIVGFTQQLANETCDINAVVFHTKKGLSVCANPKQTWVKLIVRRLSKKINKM
Method: (§1) We also used surface plasmon resonance (Biacore™) analysis to test whether HC2/LC3 and HC2/LK3 can bind to mouse, cynomolgus, or rhesus macaque CCL20 orthologs. Monoclonal mouse anti-human placental alkaline phosphatase was immobilized on all four flow cells of a CM5 chip at a flow rate of 25 μl/min. 25 μl of a 2 nM solution of human, rhesus, cynomolgus, or mouse CCL20-SEAP in HBS-EP buffer was injected over flow cell 2, 3, or 4. For antibody binding, 240 μl of 0-80 nM dilutions of HC2/LC3, HC2/LK3, or 2F5-5 MAb in HBS-EP buffer (or buffer alone) was injected over all four flow cells at a flow rate of 50 μl/min. Dissociation followed for 45 min. Flow cell 1 (anti-SEAP alone) was used as a reference for all flow cells. Regeneration of the flow cells was performed with 10 mM glycine at pH 2.25. Due to regeneration effects on the capturing capacity of the chips, antibody injections were performed sequentially from low to high concentration. Data fitting was performed using a 1:1 Langmuir model.
(§2) In contrast, chimeric, HC2/LC3, and HC2/LK3 antibodies effectively bound to human, rhesus, and cynomolgus CCL20 (Table 17).

[2] = molecular target: T2, cynomolgus CCL20-secreted alkaline phosphatase (SEAP) fusion (cynomolgus monkey); assay: as above
T2 construct: also called cCCL20; cynomolgus CCL20-SEAP; not shown: the SEAP reporter (cDNA from Clontech pSEAP-Enhancer) and its junction to CCL20
T2 chain: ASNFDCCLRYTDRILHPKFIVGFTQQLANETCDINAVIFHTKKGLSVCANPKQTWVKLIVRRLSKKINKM
Method: as §1, §2

[3] = molecular target: T3, human CCL20-secreted alkaline phosphatase (SEAP) fusion (human, UniProt P78556 27-96); assay: SPR (Biacore), CCL20-SEAP captured by anti-SEAP, antibody injected (bivalent format), 1:1 Langmuir
T3 construct: also called hCCL20; human CCL20-SEAP; not shown: secreted alkaline phosphatase (SEAP), cDNA from pSEAP-Enhancer vector (Clontech)
Method: as §1, §2

[4] = molecular target: T1, rhesus CCL20-secreted alkaline …; assay: as above
Method: as §1, §2

[5] = molecular target: T2, cynomolgus CCL20-secreted alkaline …; assay: as above
Method: as §1, §2

[6] = molecular target: T4, human CCL20 anchored via a His-tag (human, UniProt P78556 27-96); assay: ELISA on His-tag anchored human CCL20, antibody titrated (x axis 'Ab conc. (ug/ml)', falling from left to right), Abs 450
T4 construct: Construct not described; also called His-tag anchored CCL20; not shown: His-tag

[7] = molecular target: T5, mouse CCL20-secreted alkaline phosphatase (SEAP) fusion (mouse, UniProt O89093 28-97); assay: ELISA (fluorescent HRP substrate): CCL20-SEAP captured on anti-alkaline phosphatase in 5-fold dilutions from 20 nM (x axis, nM), antibody at 1 ug/ml
T5 construct: Expressed in HEK293E, used as culture supernatant; also called SEAP-tagged mouse CCL20; mCCL20; not shown: secreted alkaline phosphatase (SEAP), cDNA from pSEAP-Enhancer vector (Clontech)
T5 sequence: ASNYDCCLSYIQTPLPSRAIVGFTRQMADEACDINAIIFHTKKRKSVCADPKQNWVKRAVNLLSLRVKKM
Method: To test whether the chimeric and humanized antibodies can bind to mouse, cynomolgus, or rhesus macaque CCL20 orthologs, we used ELISA assays as illustrated in FIG. 15. Recombinant secreted alkaline phosphatase (SEAP)-chemokine fusion proteins were engineered as described in Example 2, expressed and purified for all of the CCL20 orthologs tested. Nunc MaxiSorb flat-bottom black plates were coated with 1 μg/ml mouse anti-placental alkaline phosphatase antibody (Pierce, cat# MA1-19354) in 50 mM sodium bicarbonate, pH 9.4, overnight at 4° C. Plates were then blocked using 1× phosphate buffered saline with Tween-20 (PBST) with 5% bovine serum albumin (BSA) for 2 hours at room temperature. 20 nM SEAP-CCL20 fusion proteins were serially diluted 5-fold in Opti-MEM medium (Invitrogen). Chimeric and humanized (HC2/LC3 and HC2/LK3) antibodies were diluted to 1 μg/ml in 1×PBST with 5% BSA, added to the plates, and incubated for 1 hr at room temperature. The plates were then washed with 1×PBST with 5% BSA three times. […] QuantaBlu fluorescent HRP substrate (Pierce cat#15169) was added for detection of bound antibody by measuring fluorescence in a Molecular Devices M5 (Excitation 325 nm/Emission 420 nm) plate reader.
While the hamster anti-mouse CCL20 antibody 2F5-5 MAb bound mouse CCL20 with a 50% effective dose (EC₅₀) of 64 pM (data not shown), neither the chimeric nor humanized anti-human CCL20 antibodies bound detectably to mouse CCL20 or rat CCL20 under the conditions described above. By contrast, both the chimeric and humanized antibodies effectively bound to human, rhesus, and cynomolgus CCL20 (FIGS. 16A-C, 17A and B).

T3 sequence (P78556 27-96): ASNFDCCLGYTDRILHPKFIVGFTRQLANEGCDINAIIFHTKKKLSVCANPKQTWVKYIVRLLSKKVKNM
T4 sequence (P78556 27-96 limits assumed): as the sequence (P78556 27-96) above

Binder	fold higher KD than for human CCL20 [1] [fold]	fold higher KD than for human CCL20 [2] [fold]	Kd [3] [nM]	koff [3] [s⁻¹]	kon [3] [M⁻¹ s⁻¹]	Kd [4] [nM]	koff [4] [s⁻¹]	kon [4] [M⁻¹ s⁻¹]	Kd [5] [nM]	koff [5] [s⁻¹]	kon [5] [M⁻¹ s⁻¹]	EC50 (read off the curve) [6] [ng/mL]	binding result [7]
humanized anti-human CCL20 antibody 36LK3/36HC2 (antibody, human IgG1, kappa, V domains shown, expressed in HEK293 cells; also called HC2/LK3; HC2LK3) VH: QVQLVQSGAEVKKPGASVKVSCKASGYTFTNYWMHWVRQAPGQGLEWMGVIDPSDSYTTYAQKFQGRVTMTVDTSTSTVYMELSSLRSEDTAVYYCARGNYGVDYAMDYWGQGTLVTVSS VL: DIQMTQSPSSLSASVGDRVTITCGASENIYGALNWYQRKPGKAPKLLIYGATNLADGVPSRFSGSGSGRDYTLTISSLQPEDFATYYCQNVLITPYTFGQGTKLEIKR	~3	~3	0.0118	3.39e-05	2.88e+06	0.0312	8.21e-05	2.63e+06	0.0283	0.000149	5.28e+06	~6	no binding (tested: 20 nM)
humanized anti-human CCL20 antibody 36LC3/36HC2 (antibody, human IgG1, kappa, V domains shown, expressed in HEK293 cells; also called HC2/LC3; HC2LC3) VH: QVQLVQSGAEVKKPGASVKVSCKASGYTFTNYWMHWVRQAPGQGLEWMGVIDPSDSYTTYAQKFQGRVTMTVDTSTSTVYMELSSLRSEDTAVYYCARGNYGVDYAMDYWGQGTLVTVSS VL: DIQMTQSPSSLSASVGDRVTITCRASENIYGALNWYQQKPGKAPKLLIYGATNLADGVPSRFSGSGSGRQYSLTISSLQPEDFATYYCQNVLITPYTFGGGTKLEIKR	~3	~3	0.00471	2.68e-05	5.69e+06	0.0182	7.51e-05	4.13e+06	0.0155	0.000134	8.64e+06	~6	no binding (tested: 20 nM)
mouse anti-human CCL20 monoclonal antibody 36F7C10 (antibody, V domains shown, Mouse hybridoma antibody; also called MouseMAb; parental mouse clone 36F7C10) VH: QVQLQQPGAELVKPGASVKMSCKASGYTFTNYWMHWVKQRPGQGLEWIGVIDPSDSYTTYNQKFKGKATLTVDTSSSTAYMQLSSLTSEDSAVYYCTRGNYGVDYAMDYWGQGTSVTVSS VL: DIQMTQSPASLSASVGETVTITCGASENIYGALNWYQRKQGKSPQLLIYGATNLADGMSSRFSGSGSGRQYSLKISSLHPDDVATYYCQNVLITPYTFGGGTKLEIK	–	–	–	–	–	–	–	–	–	–	–	~5	–
chimeric 36F7C10 antibody (36F7C10-hFc) (antibody, V domains shown, also called chimeric 36F710; Chimeric MAb) VH: QVQLQQPGAELVKPGASVKMSCKASGYTFTNYWMHWVKQRPGQGLEWIGVIDPSDSYTTYNQKFKGKATLTVDTSSSTAYMQLSSLTSEDSAVYYCTRGNYGVDYAMDYWGQGTSVTVSS VL: DIQMTQSPASLSASVGETVTITCGASENIYGALNWYQRKQGKSPQLLIYGATNLADGMSSRFSGSGSGRQYSLKISSLHPDDVATYYCQNVLITPYTFGGGTKLEIK	~3	~3	0.00716	2.08e-05	2.9e+06	0.00605	1.78e-05	2.94e+06	0.0132	5.04e-05	3.83e+06	~8	no binding (tested: 20 nM)

Reference: patent US20160046707A1 (EISAI R AND D MANAGEMENT, published 2016)
